Consider 84 variants from the RNAGym collection of RNA variant scans (doi:10.1093/molbev/msab373).

To fix the notation:
B1: Azoarcus group I ribozyme (parent)
chain: GUGCCUUGCGCCGGGAAACCACGCAAGGGAUGGUGUCAAAUUCGGCGAAACCUAAGCGCCCGCCCGGGCGUAUGGCAACGCCGAGCCAAGCUUCGGCGCCUGCGCCGAUGAAGGUGUAGAGACUAGACGGCACCCACCUAAGGCAAACGCUAUGGUGAAGGCAUAGUCCAGGGAGUGGCGAAAGUCACACAAACCGG

The variants in this data set derive from B1. Put plainly: reverse-splicing fitness (ratio to wild type); higher = more active; in vitro selection; Mg2+ level not given. An outline of the steps:
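An in vitro group I ribozyme library with randomized positions was T7-transcribed and gel-purified. In triplicate, 10 pmol RNA in EPPS pH 7.5 was reacted with 50 pmoles of a 30-nt RNA substrate for 1 h at 37 °C across several added MgCl2 levels (1–48 mM), then stopped with EDTA. Products were reverse transcribed from a substrate-complementary primer, PCR-amplified and sequenced (HiSeq 4000). Fitness is a variant's read proportion after selection over that before, normalised to wild type.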
As to C82A A111U A120G A145U C150G C169U U176C, the reverse-splicing fitness came to 0.0125.

Take C82A A111U A120G A145U C150G C169U U176G: the reverse-splicing fitness is 0.00545.

For the variant C82A A111U A120G A145U C150A C169G U176G, the reverse-splicing fitness was 0.00492.

Take C82A A111U A120G A145U C150A C169G U176A: the reverse-splicing fitness was determined as 0.0146.

With C82A A111U A120G A145U C150A C169G U176C, the reverse-splicing fitness worked out at 0.0161.

Regarding C82A A111U A120G A145U C150U U176G, the reverse-splicing fitness turned out to be 0.00672.

In the case of C82A A111U A120G A145U C150U U176A, the reverse-splicing fitness is 0.0102.

As to C82A A111U A120G A145U C150U U176C, the reverse-splicing fitness worked out at 0.0151.

In the case of C82A A111U A120G A145G C169A U176A, the reverse-splicing fitness came to 0.0222.

C82A A111U A120G A145G C169A U176G: the reverse-splicing fitness came to 0.00503.

With C82A A111U A120G A145G C169A U176C, the reverse-splicing fitness was determined as 0.0259.

In the case of C82A A111U A120G C150G C169G, the reverse-splicing fitness stood at 0.00782.

Regarding C82A A111U A120G C150G C169A, the reverse-splicing fitness came out at 0.00926.

In the case of C82A A111U A120G C150G C169U, the reverse-splicing fitness came to 0.00851.

In the case of C82A A111U A120G A145G C169U, the reverse-splicing fitness worked out at 0.00913.

Turning to C82A A111U A120G A145G C169A, the reverse-splicing fitness is 0.00997.

Regarding C82A A111U A120G A145G C169G, the reverse-splicing fitness was found to be 0.0107.

Take C82A A111U A120G A145G C150A C169A U176G: the reverse-splicing fitness is 0.00817.

As for C82A A111U A120G A145G C150A C169A U176C, the reverse-splicing fitness is 0.0248.

On to C82A A111U A120G A145G C150A C169A U176A, for which the reverse-splicing fitness amounted to 0.0191.

Consider C82A A111U A120G C150A C169G, for which the reverse-splicing fitness was determined as 0.0102.

For C82A A111U A120G C150A C169A, the reverse-splicing fitness turned out to be 0.0108.

On to C82A A111U A120G C150A C169U, for which the reverse-splicing fitness was found to be 0.00869.

In the case of C82A A111U A120G A145G C150U U176C, the reverse-splicing fitness was found to be 0.0178.

On to C82A A111U A120G A145G C150U U176G, for which the reverse-splicing fitness was 0.00803.

For the variant C82A A111U A120G A145G C150U U176A, the reverse-splicing fitness is 0.00963.

In the case of C82A A111U A120G A145U C169A, the reverse-splicing fitness turned out to be 0.00877.

Take C82A A111U A120G A145U C169U: the reverse-splicing fitness was 0.00974.

For the variant C82A A111U A120G A145U C169G, the reverse-splicing fitness amounted to 0.00975.

As to C82A A111U A120G A145G C150G C169A, the reverse-splicing fitness was found to be 0.0092.

C82A A111U A120G A145G C150G C169G: the reverse-splicing fitness was found to be 0.00797.

For C82A A111U A120G A145G C150G C169U, the reverse-splicing fitness came out at 0.00901.

Turning to C82A A111U A120G C150A U176A, the reverse-splicing fitness was 0.0123.

As to C82A A111U A120G C150A U176C, the reverse-splicing fitness is 0.0188.

Regarding C82A A111U A120G C150A U176G, the reverse-splicing fitness turned out to be 0.0101.

Consider C82A A111U A120G A145G C150G U176C, for which the reverse-splicing fitness was found to be 0.0105.

With C82A A111U A120G A145G C150G U176A, the reverse-splicing fitness was determined as 0.00704.

For the variant C82A A111U A120G A145G C150G U176G, the reverse-splicing fitness amounted to 0.00604.

With C82A A111U A120G A145U U176C, the reverse-splicing fitness was 0.0145.

C82A A111U A120G A145U U176A: the reverse-splicing fitness was found to be 0.0132.

Regarding C82A A111U A120G A145U U176G, the reverse-splicing fitness came to 0.00522.

Consider C82A A111U A120G A145G C150A, for which the reverse-splicing fitness was found to be 0.0095.

As for C82A A111U A120G A145G C150G, the reverse-splicing fitness was determined as 0.00699.

For the variant C82A A111U A120G A145G C150U, the reverse-splicing fitness is 0.0133.

On to C82A A111U A120G A145U C150A C169G, for which the reverse-splicing fitness is 0.00859.

Take C82A A111U A120G A145U C150A C169U: the reverse-splicing fitness was 0.0069.

Regarding C82A A111U A120G A145U C150A C169A, the reverse-splicing fitness stood at 0.00942.

As for C82A A111U A120G A145C U176G, the reverse-splicing fitness came to 0.00543.

Regarding C82A A111U A120G A145C U176C, the reverse-splicing fitness stood at 0.012.

Regarding C82A A111U A120G A145C U176A, the reverse-splicing fitness stood at 0.0112.

As for C82A A111U A120G A145U C150G C169A U176A, the reverse-splicing fitness was found to be 0.0086.

Consider C82A A111U A120G A145U C150G C169A U176G, for which the reverse-splicing fitness was 0.00552.

Regarding C82A A111U A120G A145U C150G C169A U176C, the reverse-splicing fitness came out at 0.00995.

Turning to C82A A111U A120G A145G C169G U176C, the reverse-splicing fitness turned out to be 0.0285.

As for C82A A111U A120G A145G C169G U176G, the reverse-splicing fitness turned out to be 0.00424.

As to C82A A111U A120G A145G C169G U176A, the reverse-splicing fitness was 0.021.

Consider C82A A111U A120G C150A C169G U176G, for which the reverse-splicing fitness worked out at 0.0059.

For C82A A111U A120G C150A C169G U176C, the reverse-splicing fitness turned out to be 0.0227.

With C82A A111U A120G C150A C169G U176A, the reverse-splicing fitness turned out to be 0.0215.

As to C82A A111U A120G A145U C150A U176A, the reverse-splicing fitness was 0.0128.

As to C82A A111U A120G A145U C150A U176G, the reverse-splicing fitness was found to be 0.00656.

Turning to C82A A111U A120G A145U C150A U176C, the reverse-splicing fitness is 0.0152.

Consider C82A A111U A120G A145G C150U C169U, for which the reverse-splicing fitness worked out at 0.0104.

In the case of C82A A111U A120G A145G C150U C169G, the reverse-splicing fitness stood at 0.0105.

Consider C82A A111U A120G A145G C150U C169A, for which the reverse-splicing fitness came to 0.0106.

C82A A111U A120G A145G C150A C169U U176G: the reverse-splicing fitness amounted to 0.0069.

In the case of C82A A111U A120G A145G C150A C169U U176A, the reverse-splicing fitness was 0.0197.

In the case of C82A A111U A120G A145G C150A C169U U176C, the reverse-splicing fitness was found to be 0.0167.

In the case of C82A A111U A120G A145G C150A U176C, the reverse-splicing fitness was 0.0209.

As to C82A A111U A120G A145G C150A U176G, the reverse-splicing fitness worked out at 0.00816.

Take C82A A111U A120G A145G C150A U176A: the reverse-splicing fitness was 0.0111.

In the case of C82A A111U A120G C150G U176A, the reverse-splicing fitness was found to be 0.00663.

As to C82A A111U A120G C150G U176C, the reverse-splicing fitness turned out to be 0.00922.

For the variant C82A A111U A120G C150G U176G, the reverse-splicing fitness worked out at 0.00319.

For the variant C82A A111U A120G A145G C150A C169G U176G, the reverse-splicing fitness amounted to 0.00589.

Consider C82A A111U A120G A145G C150A C169G U176C, for which the reverse-splicing fitness was determined as 0.0255.

Regarding C82A A111U A120G A145G C150A C169G U176A, the reverse-splicing fitness was 0.0172.

Regarding C82A A111U A120G A145U C150G U176G, the reverse-splicing fitness came to 0.00424.

Turning to C82A A111U A120G A145U C150G U176C, the reverse-splicing fitness amounted to 0.00834.

For C82A A111U A120G A145U C150G U176A, the reverse-splicing fitness came to 0.00602.

As for C82A A111U A120G C150A C169A U176A, the reverse-splicing fitness amounted to 0.0214.

For C82A A111U A120G C150A C169A U176G, the reverse-splicing fitness came to 0.00665.

For C82A A111U A120G C150A C169A U176C, the reverse-splicing fitness was found to be 0.0237.

On to C82A A111U A120G A145C C169U, for which the reverse-splicing fitness turned out to be 0.00838.
